Measured values from US20240270846A1 (published 2024).

Molecular target: T1, CD3 epsilon homodimer protein (UniProt P07766 23-126)
T1 construct: Construct of the homodimer protein is not described; also called CD3 (CD3 epsilon)
Assay: SPR (Biacore T200), CD3 epsilon homodimer on CM4 chip, one-arm antibody as analyte; ratio to unaltered CE115HA000;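 further: surface plasmon resonance run at 25 °C with HBS-EP+ as running buffer, CD3 epsilon homodimer attached by amine coupling, antibody passed over as analyte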

T1 sequence (P07766 23-126): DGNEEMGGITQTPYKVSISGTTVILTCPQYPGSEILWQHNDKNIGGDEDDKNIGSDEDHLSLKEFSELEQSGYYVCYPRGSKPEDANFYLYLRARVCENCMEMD

Binder	KD ratio (KD value of CE115HA000/KD value of the altered form)
CE115HA000 A99Y one-arm antibody (antibody, human IgG1, kappa, L234A L235A, N297A, name in Kabat numbering, one-arm antibody) heavy: QVQLVESGGGVVQPGRSLRLSCAASGFTFSNAWMHWVRQAPGKGLEWVAQIKAKSNNYATYYAESVKGRFTISRDDSKNSLYLQMNSLKTEDTAVYYCRYVHYGYYYGVDAWGQGTTVTVSSASTKGPSVFPLAPSSKSTSGGTAALGCLVKDYFPEPVTVSWNSGALTSGVHTFPAVLQSSGLYSLSSVVTVPSSSLGTQTYICNVNHKPSNTKVDKKVEPKSCDKTHTCPPCPAPEAAGGPSVFLFPPKPKDTLMISRTPEVTCVVVDVSHEDPEVKFNWYVDGVEVHNAKTKPREEQYASTYRVVSVLTVLHQDWLNGKEYKCKVSNKALPAPIEKTISKAKGQPREPQVYTLPPSRCELTKNQVSLSCAVKGFYPSDIAVEWESNGQPENNYKTTPPVLDSDGSFFLVSKLTVDKSRWQQGNVFSCSVMHEALHNHYTQKSLSLSPDYKDDDDK EPKSSDKTHTCPPCPAPELLGGPSVFLFPPKPKDTLMISRTPEVTCVVVDVSHEDPEVKFNWYVDGVEVHNAKTKPREEQYNSTYRVVSVLTVLHQDWLNGKEYKCKVSNKALPAPIEKTISKAKGQPREPQVCTLPPSRDELTKNQVSLWCLVKGFYPSDIAVEWESNGQPENNYKTTPPVLDSDGSFFLYSKLTVDKSRWQQGNVFSCSVMHEALHNRYTQKSLSLSP light: DIVMTQSPLSLPVTPGEPASISCRSSQSLVHSNRNTYLHWYQQKPGQAPRLLIYKVSNRFSGVPDRFSGSGSGTDFTLKISRVEAEDVGVYYCGQGTQVPYTFGQGTKLEIKRTVAAPSVFIFPPSDEQLKSGTASVVCLLNNFYPREAKVQWKVDNALQSGNSQESVTEQDSKDSTYSLSSTLTLSKADYEKHKVYACEVTHQGLSSPVTKSFNRGEC	1.25
CE115HA000 A102P one-arm antibody (antibody, human IgG1, kappa, L234A L235A, N297A, name in Kabat numbering, one-arm antibody) heavy: QVQLVESGGGVVQPGRSLRLSCAASGFTFSNAWMHWVRQAPGKGLEWVAQIKAKSNNYATYYAESVKGRFTISRDDSKNSLYLQMNSLKTEDTAVYYCRYVHYGAYYGVDPWGQGTTVTVSSASTKGPSVFPLAPSSKSTSGGTAALGCLVKDYFPEPVTVSWNSGALTSGVHTFPAVLQSSGLYSLSSVVTVPSSSLGTQTYICNVNHKPSNTKVDKKVEPKSCDKTHTCPPCPAPEAAGGPSVFLFPPKPKDTLMISRTPEVTCVVVDVSHEDPEVKFNWYVDGVEVHNAKTKPREEQYASTYRVVSVLTVLHQDWLNGKEYKCKVSNKALPAPIEKTISKAKGQPREPQVYTLPPSRCELTKNQVSLSCAVKGFYPSDIAVEWESNGQPENNYKTTPPVLDSDGSFFLVSKLTVDKSRWQQGNVFSCSVMHEALHNHYTQKSLSLSPDYKDDDDK EPKSSDKTHTCPPCPAPELLGGPSVFLFPPKPKDTLMISRTPEVTCVVVDVSHEDPEVKFNWYVDGVEVHNAKTKPREEQYNSTYRVVSVLTVLHQDWLNGKEYKCKVSNKALPAPIEKTISKAKGQPREPQVCTLPPSRDELTKNQVSLWCLVKGFYPSDIAVEWESNGQPENNYKTTPPVLDSDGSFFLYSKLTVDKSRWQQGNVFSCSVMHEALHNRYTQKSLSLSP light: DIVMTQSPLSLPVTPGEPASISCRSSQSLVHSNRNTYLHWYQQKPGQAPRLLIYKVSNRFSGVPDRFSGSGSGTDFTLKISRVEAEDVGVYYCGQGTQVPYTFGQGTKLEIKRTVAAPSVFIFPPSDEQLKSGTASVVCLLNNFYPREAKVQWKVDNALQSGNSQESVTEQDSKDSTYSLSSTLTLSKADYEKHKVYACEVTHQGLSSPVTKSFNRGEC	3.51
CE115HA000 A102I one-arm antibody (antibody, human IgG1, kappa, L234A L235A, N297A, name in Kabat numbering, one-arm antibody) heavy: QVQLVESGGGVVQPGRSLRLSCAASGFTFSNAWMHWVRQAPGKGLEWVAQIKAKSNNYATYYAESVKGRFTISRDDSKNSLYLQMNSLKTEDTAVYYCRYVHYGAYYGVDIWGQGTTVTVSSASTKGPSVFPLAPSSKSTSGGTAALGCLVKDYFPEPVTVSWNSGALTSGVHTFPAVLQSSGLYSLSSVVTVPSSSLGTQTYICNVNHKPSNTKVDKKVEPKSCDKTHTCPPCPAPEAAGGPSVFLFPPKPKDTLMISRTPEVTCVVVDVSHEDPEVKFNWYVDGVEVHNAKTKPREEQYASTYRVVSVLTVLHQDWLNGKEYKCKVSNKALPAPIEKTISKAKGQPREPQVYTLPPSRCELTKNQVSLSCAVKGFYPSDIAVEWESNGQPENNYKTTPPVLDSDGSFFLVSKLTVDKSRWQQGNVFSCSVMHEALHNHYTQKSLSLSPDYKDDDDK EPKSSDKTHTCPPCPAPELLGGPSVFLFPPKPKDTLMISRTPEVTCVVVDVSHEDPEVKFNWYVDGVEVHNAKTKPREEQYNSTYRVVSVLTVLHQDWLNGKEYKCKVSNKALPAPIEKTISKAKGQPREPQVCTLPPSRDELTKNQVSLWCLVKGFYPSDIAVEWESNGQPENNYKTTPPVLDSDGSFFLYSKLTVDKSRWQQGNVFSCSVMHEALHNRYTQKSLSLSP light: DIVMTQSPLSLPVTPGEPASISCRSSQSLVHSNRNTYLHWYQQKPGQAPRLLIYKVSNRFSGVPDRFSGSGSGTDFTLKISRVEAEDVGVYYCGQGTQVPYTFGQGTKLEIKRTVAAPSVFIFPPSDEQLKSGTASVVCLLNNFYPREAKVQWKVDNALQSGNSQESVTEQDSKDSTYSLSSTLTLSKADYEKHKVYACEVTHQGLSSPVTKSFNRGEC	1.29

Now from value to binder:

KD ratio (KD value of CE115HA000/KD value of the altered form)	Binder
1.19	CE115HA000 D72A one-arm antibody (antibody, human IgG1, kappa, L234A L235A, N297A, name in Kabat numbering, one-arm antibody) heavy: QVQLVESGGGVVQPGRSLRLSCAASGFTFSNAWMHWVRQAPGKGLEWVAQIKAKSNNYATYYAESVKGRFTISRADSKNSLYLQMNSLKTEDTAVYYCRYVHYGAYYGVDAWGQGTTVTVSSASTKGPSVFPLAPSSKSTSGGTAALGCLVKDYFPEPVTVSWNSGALTSGVHTFPAVLQSSGLYSLSSVVTVPSSSLGTQTYICNVNHKPSNTKVDKKVEPKSCDKTHTCPPCPAPEAAGGPSVFLFPPKPKDTLMISRTPEVTCVVVDVSHEDPEVKFNWYVDGVEVHNAKTKPREEQYASTYRVVSVLTVLHQDWLNGKEYKCKVSNKALPAPIEKTISKAKGQPREPQVYTLPPSRCELTKNQVSLSCAVKGFYPSDIAVEWESNGQPENNYKTTPPVLDSDGSFFLVSKLTVDKSRWQQGNVFSCSVMHEALHNHYTQKSLSLSPDYKDDDDK EPKSSDKTHTCPPCPAPELLGGPSVFLFPPKPKDTLMISRTPEVTCVVVDVSHEDPEVKFNWYVDGVEVHNAKTKPREEQYNSTYRVVSVLTVLHQDWLNGKEYKCKVSNKALPAPIEKTISKAKGQPREPQVCTLPPSRDELTKNQVSLWCLVKGFYPSDIAVEWESNGQPENNYKTTPPVLDSDGSFFLYSKLTVDKSRWQQGNVFSCSVMHEALHNRYTQKSLSLSP light: DIVMTQSPLSLPVTPGEPASISCRSSQSLVHSNRNTYLHWYQQKPGQAPRLLIYKVSNRFSGVPDRFSGSGSGTDFTLKISRVEAEDVGVYYCGQGTQVPYTFGQGTKLEIKRTVAAPSVFIFPPSDEQLKSGTASVVCLLNNFYPREAKVQWKVDNALQSGNSQESVTEQDSKDSTYSLSSTLTLSKADYEKHKVYACEVTHQGLSSPVTKSFNRGEC
1	CE115HA000 A102Y one-arm antibody (antibody, human IgG1, kappa, L234A L235A, N297A, name in Kabat numbering, one-arm antibody) heavy: QVQLVESGGGVVQPGRSLRLSCAASGFTFSNAWMHWVRQAPGKGLEWVAQIKAKSNNYATYYAESVKGRFTISRDDSKNSLYLQMNSLKTEDTAVYYCRYVHYGAYYGVDYWGQGTTVTVSSASTKGPSVFPLAPSSKSTSGGTAALGCLVKDYFPEPVTVSWNSGALTSGVHTFPAVLQSSGLYSLSSVVTVPSSSLGTQTYICNVNHKPSNTKVDKKVEPKSCDKTHTCPPCPAPEAAGGPSVFLFPPKPKDTLMISRTPEVTCVVVDVSHEDPEVKFNWYVDGVEVHNAKTKPREEQYASTYRVVSVLTVLHQDWLNGKEYKCKVSNKALPAPIEKTISKAKGQPREPQVYTLPPSRCELTKNQVSLSCAVKGFYPSDIAVEWESNGQPENNYKTTPPVLDSDGSFFLVSKLTVDKSRWQQGNVFSCSVMHEALHNHYTQKSLSLSPDYKDDDDK EPKSSDKTHTCPPCPAPELLGGPSVFLFPPKPKDTLMISRTPEVTCVVVDVSHEDPEVKFNWYVDGVEVHNAKTKPREEQYNSTYRVVSVLTVLHQDWLNGKEYKCKVSNKALPAPIEKTISKAKGQPREPQVCTLPPSRDELTKNQVSLWCLVKGFYPSDIAVEWESNGQPENNYKTTPPVLDSDGSFFLYSKLTVDKSRWQQGNVFSCSVMHEALHNRYTQKSLSLSP light: DIVMTQSPLSLPVTPGEPASISCRSSQSLVHSNRNTYLHWYQQKPGQAPRLLIYKVSNRFSGVPDRFSGSGSGTDFTLKISRVEAEDVGVYYCGQGTQVPYTFGQGTKLEIKRTVAAPSVFIFPPSDEQLKSGTASVVCLLNNFYPREAKVQWKVDNALQSGNSQESVTEQDSKDSTYSLSSTLTLSKADYEKHKVYACEVTHQGLSSPVTKSFNRGEC
1.27	CE115HA000 A102V one-arm antibody (antibody, human IgG1, kappa, L234A L235A, N297A, name in Kabat numbering, one-arm antibody) heavy: QVQLVESGGGVVQPGRSLRLSCAASGFTFSNAWMHWVRQAPGKGLEWVAQIKAKSNNYATYYAESVKGRFTISRDDSKNSLYLQMNSLKTEDTAVYYCRYVHYGAYYGVDVWGQGTTVTVSSASTKGPSVFPLAPSSKSTSGGTAALGCLVKDYFPEPVTVSWNSGALTSGVHTFPAVLQSSGLYSLSSVVTVPSSSLGTQTYICNVNHKPSNTKVDKKVEPKSCDKTHTCPPCPAPEAAGGPSVFLFPPKPKDTLMISRTPEVTCVVVDVSHEDPEVKFNWYVDGVEVHNAKTKPREEQYASTYRVVSVLTVLHQDWLNGKEYKCKVSNKALPAPIEKTISKAKGQPREPQVYTLPPSRCELTKNQVSLSCAVKGFYPSDIAVEWESNGQPENNYKTTPPVLDSDGSFFLVSKLTVDKSRWQQGNVFSCSVMHEALHNHYTQKSLSLSPDYKDDDDK EPKSSDKTHTCPPCPAPELLGGPSVFLFPPKPKDTLMISRTPEVTCVVVDVSHEDPEVKFNWYVDGVEVHNAKTKPREEQYNSTYRVVSVLTVLHQDWLNGKEYKCKVSNKALPAPIEKTISKAKGQPREPQVCTLPPSRDELTKNQVSLWCLVKGFYPSDIAVEWESNGQPENNYKTTPPVLDSDGSFFLYSKLTVDKSRWQQGNVFSCSVMHEALHNRYTQKSLSLSP light: DIVMTQSPLSLPVTPGEPASISCRSSQSLVHSNRNTYLHWYQQKPGQAPRLLIYKVSNRFSGVPDRFSGSGSGTDFTLKISRVEAEDVGVYYCGQGTQVPYTFGQGTKLEIKRTVAAPSVFIFPPSDEQLKSGTASVVCLLNNFYPREAKVQWKVDNALQSGNSQESVTEQDSKDSTYSLSSTLTLSKADYEKHKVYACEVTHQGLSSPVTKSFNRGEC
